Measured values from the domain aggregation screens of Martell et al. (2025).

Assay: soluble fraction after stress (log2 fold change); higher = more stays soluble; pooled small domains, quantitative proteomics
Conditions: stress: 75 degC
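Note: 20 min heating vs room temperature control held 20 min.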

Compared with “HMRVELVVVPELRQQLLPEARELANSAGLQLRVRGQSPADETRTIVVTQSPAAGTRVAARSIVLVE”, “HMRVPTVIGMDEGTAKATLANASLKSNIVYESDETKENGKVLSQGIEQNKEVKAGTTVEIKVNKIE” is higher in “soluble fraction (log2)” value: -1.12 for the first, 0.116 for the second.

“HMRVTEVSYDKFLDMLSGGQVTVVELQENERELYFKAADENGAERIYSTGVFPDADLQKRLSESGVTF” and “HMRYLHTMIRVSDLEESLNFFKLLDIHEVSRKENEQARFTLVFLSATGDEKLVENAKSPLIELTFN” are within 0.2 log units of each other in “soluble fraction (log2)” value: -0.14 for the first, -0.0509 for the second.

Going from “HMRYLMPDLVNRRYEPVRSLLEARGIRFGNVIFEPYEGLPPGIVLRQDPPAGHPLPRRRTVSLVVSGPGGR” to “HMRYQIAEARKLRDITQAELAEKMGTTQQTIQRYETNQVNIRMDKMIEMSEILNVSLAYLLGMSSSPEL”, the “soluble fraction (log2)” value rises from -2.56 to -1.78.

Going from “HMRYVVQVATFSSKNNAIRAADDLAGFVVVSNGYYRVRTGPYADRGEANAALAKARKAGYTDAFVDTS” to “HMSAAYVYVTGTRVNQRDGPSTFDRVMGVLVEGTRVQLLRDQGQWAQIRSDLGTGWLSSGFLSRNG”, the “soluble fraction (log2)” value rises from -2.19 to -1.88.

“HMSADKAEAAEASLKSFNLRLQAAAMEAGKTFAPVTADQYAEYKAAWGTYIRKGIEGLSESEKKTINVG” and “HMSAETREELVGREGVSLTDLRPSGFALFGQEKIDVVSESEFIEEGTSVRIVSVEGSRHIVRAKR” are within 0.2 log units of each other in “soluble fraction (log2)” value: -0.243 for the first, -0.0724 for the second.

“HMSAISSARKEKIIEYLTDHGSARSSEIAEYVDLRPSRVRDYLGELVREDIVVAEGANRNRTYRLK” and “HMSAPGYRAVYPGMLESERQTAYELLSSSGFDVKINTSSGELEVTTDRYHEARMVMASQNIPK” are within 0.2 log units of each other in “soluble fraction (log2)” value: -0.0533 for the first, -0.137 for the second.

Going from “HMSAPVFRITPAGVVVNGLKRSDILTLTRIDGAMNTLPHNAGEVLVSTEGLAKGVYVITAGGKSLKFLV” to “HMSAQPMEYSRFYSDVTQGRVAEVEIEGREINGRLSTGERFKTFSPETDNKALIGHLLDNGVVIEGKPP”, the “soluble fraction (log2)” value rises from -1.85 to 0.255.

Going from “HMSASEKLFEARKNLNIVNVLGKNPVDRYDIVKILKHGDHYHIYDSKGNEGITYTNPKSLYPEAEFGEYQG” to “HMSASTGTVSYKSGATTVWNSPSWHQVKRYVTFGDTVQLLGKTVDQNGATWYKVGDNQWIPELYLNVAG”, the “soluble fraction (log2)” value falls from -0.0642 to -0.725.

“HMSATEPVHFDPNKSPEDMTVEELQAGILAKMANNGPVSDQMKKTVNENIWHDSLVNWLKSF” and “HMSATPQRMSIINELDSARKNLSAYDLRDSLKDKGHSFNISTIYRVLSFWIDVGVVHKMDSSNTYL” are within 0.2 log units of each other in “soluble fraction (log2)” value: -0.164 for the first, -0.111 for the second.

Going from “HMSATVLVHVLGEVRKPGVVSLPEGSRVQDAITAAGGLTSRAKPGDLNLAARVSDGAQLVIGRSGSQVRTT” to “HMSAVVAPLPGLIQNILVKVGDTVHAGQHVLTMEAMKMENEIQTNRDGIIKDIKVRIGDSVNEGDTLIIL”, the “soluble fraction (log2)” value rises from -0.306 to 0.0725.

Compared with “HMSDAGAIEPTIKEILASNPKAVEEYLAGNIKNINALIGQSMKALHGKADPQTVRNLLAKLLDEM”, “HMSDAIQLEQKIGLEAIEWYLALSEQTDDKLLYQQWQSWLAADPQHQLAWSRIEQVNHGLNTL” is lower in “soluble fraction (log2)” value: -0.252 for the first, -1.03 for the second.

“HMSDAVQLGLRLRAARERRGLSQQAVADALGLPRTAVTNMESGNRAVSTLELTKLAALYGQSTAFFLSP” and “HMSDDVELLGRLSDREVSVLQYLSQGYSNKQISEQMFISNKTVSTYKARLLLKLNAGSLVDLIEFAKRNTL” are within 0.2 log units of each other in “soluble fraction (log2)” value: -1.19 for the first, -1.35 for the second.

Compared with “HMSDEINYVIQINGKNRAEAEFGANLDKESIENLALEHERIKELLNGLTVRKIIVVPKKLVNIVA”, “HMSDESALLELVKQIIADNPKAVEEIRAGKEKAMGFLIGQAMKASRGSANPQIISRLVREQLG” is higher in “soluble fraction (log2)” value: -0.556 for the first, 0.57 for the second.

First: HMSDFDPTLILDLIKGSGEALTKREIARALGIKGGDKRIELKSHLKSMEAEGVIVKQAGGAYSVP
Second: HMSDFSNLNLLELNSSELDLLLRRASSQGLTQMDLLKMARSQGLSEADLIKVKGKIDTSESIKR
The “soluble fraction (log2)” value of the first is lower: -0.132 for the first, 0.076 for the second.

“HMSDFSSNLRRLRKRAGLSQDALAEKLSVARQTVSSWERGNSYPDLDMLVRISDALATDPNELLYPN” and “HMSDGDFLQKIAEEILAQFPDKVKEYQKGKKGLIGFFMGELMKRSKGKADPKVATRILEEILSEKNGSS” are within 0.2 log units of each other in “soluble fraction (log2)” value: -0.167 for the first, -0.0745 for the second.

First: HMSDGTVYGSDGVIKVNLPQSGMLRIYATDGTTLVNRWQAAGIDTISMPRGLYIVRFDNQVWKVVV
Second: HMSDHSSLAGKEGVAVTPLRPAGTAEIDGKRMDVVTMGDYIKAGDHIKVVKVEGNRIIVAKN
The “soluble fraction (log2)” value of the first is lower: -1.65 for the first, 0.0173 for the second.

First: HMSDHYEVLGVDRNATDDQIKKAYRRLARELHPDVNDAPESQEKFKLVTHAYEVLSDPDERRKYDMG
Second: HMSDIYSLFERELGRTLSSYEYEIIGKWIEKGVSEDTIKRALKEAILNGVTNFKYIDKIIYDWSKN
The “soluble fraction (log2)” value of the first is higher: -0.0229 for the first, -0.622 for the second.

First: HMSDLFKYSPYKTLTEEQYKITYQIIERLKTDLSNGIPRISIIDGGAGTGKSILGIFLLKLLVDAQN
Second: HMSDNLSASERKALSHMEGMESVRSSEVADLLGMSQRGAQKLLNRLVDKGLASSFGANRNRRYSVE
The “soluble fraction (log2)” value of the first is higher: 0.353 for the first, 0.144 for the second.

First: HMSDNLTIVRAVYSGLSQRQAAATYHVSRNTVSLLLRHARNRGWLTLEDLAQLDNAAFSKSL
Second: HMSDPFSPTTTLKNRAKSVLSVDSFEDFKLFIKKMWQEKKEGVYQNPNVETWKDWDNISVKDAKILISLI
The “soluble fraction (log2)” value of the first is lower: -4.32 for the first, -1.45 for the second.

With “HMSDPHEELMSRIARDLSIPLTRVVAEMNTIISKEFGGHIRPEGAVVILAKRSGVEFSDLLPALRENILK” the “soluble fraction (log2)” value was -1.92.
